Source: doi:10.1101/2022.05.14.22275020, “A homozygous p.(Arg371Ser) mutation in FICD de-regulates AMPylation of the human endoplasmic reticulum chaperone BiP causing infancy-onset diabetes and severe neurodevelopmental delay” (medRxiv, 2022)
Substitutions are numbered along the chain they refer to. Names may count otherwise.

B1: wild-type FICD, structured luminal region (residues 104-445) (enzyme, human, UniProt Q9BVA6 104-445, looked up)
chain: LEARAALNQALEMKRQGKREKAQKLFMHALKMDPDFVDALTEFGIFSEEDKDIIQADYLYTRALTISPYHEKALVNRDRTLPLVEEIDQRYFSIIDSKVKKVMSIPKGNSALRRVMEETYYHHIYHTVAIEGNTLTLSEIRHILETRYAVPGKSLEEQNEVIGMHAAMKYINTTLVSRIGSVTISDVLEIHRRVLGYVDPVEAGRFRTTQVLVGHHIPPHPQDVEKQMQEFVQWLNSEEAMNLHPVEFAALAHYKLVYIHPFIDGNGRTSRLLMNLILMQAGYPPITIRKEQRSDYYHVLEAANEGDVRPFIRFIAKCTETTLDTLLFATTEYSVALPEAQP
notes: human FICD (Fic domain-containing protein), structured luminal region, residues 104-445; purification as in Perera et al., 2019 and 2021; also called FICD^WT; WT; source: E. coli T7 Express lysY/Iq (NEB), purified (Ni-NTA, Ulp1 cleavage, anion exchange, gel filtration); not shown: His6, N-terminal, cleaved; SUMO, N-terminal, cleaved
B2: FICD^R371S, structured luminal region (residues 104-445) (enzyme, human, UniProt Q9BVA6 104-445, looked up)
chain: B1 chain with R268S
notes: human FICD, structured luminal region, residues 104-445, with the patient variant p.(Arg371Ser) (NM_007076.2:c.1113G>C); Rare human variant found in patients; also called Arg371Ser mutant FICD; p.(Arg371Ser); source: E. coli T7 Express lysY/Iq (NEB), purified (Ni-NTA, Ulp1 cleavage, anion exchange, gel filtration); not shown: His6, N-terminal, cleaved; SUMO, N-terminal, cleaved

Biological target: the molecule itself
Assay: SEC; analytical SEC, Agilent Bio SEC-3 HPLC column, TNT buffer (25 mM Tris pH 8.0, 150 mM NaCl, 1 mM TCEP), 25 °C; proteins diluted to a range of concentrations (given in Figure 3a) and incubated at least 1 h at room temperature; dimer against monomer

Protein	stoichiometry N
B1	2
B2	2
